Results on 26 sequences are retold here after the Immune Epitope Database (IEDB).

One assay concerns the target HLA-B*44:02. The assay is described as follows: IEDB peptide-MHC binding, purified MHC/competitive/radioactivity; filed as Kd, often an IC50 or EC50 that approximates it; ≥ and ≤ were set here for values at or beyond the usual limits of such assays.
The next assay addresses HLA-B*44:03. The assay is described as above.
The next assay deals with HLA-A*24:02. The assay is described as above.
The next assay concerns the target HLA-A*30:02. The assay is described as above.
Another assay deals with HLA-A*29:02. Described as above.
Another assay concerns the target HLA-A*23:01. The description is as above.
A further assay has as its target HLA-A*01:01. The assay is described as above.
Assay [1] addresses HLA-A*26:01. The assay is described as above.
Assay [2] has as its target HLA-A*26:01. The assay is described as follows: IEDB peptide-MHC binding, purified MHC/competitive/fluorescence; filed as Kd, often an IC50 or EC50 that approximates it; ≥ and ≤ were set here for values at or beyond the usual limits of such assays.
The next assay addresses HLA-A*30:01. The assay is described as follows: IEDB peptide-MHC binding, purified MHC/competitive/radioactivity; filed as Kd, often an IC50 or EC50 that approximates it; ≥ and ≤ were set here for values at or beyond the usual limits of such assays. Particulars: source organism: Dengue virus 2 Jamaica/1409/1983.
The target in the next assay is HLA-B*08:01. The assay is described as above.
The target of the next assay is HLA-A*32:01. The assay is described as above.
Where [3] appears, read: source organism: Dengue virus 3 Martinique/1243/1999.
Where [4] appears, read: source organism: Dengue virus 1 Brazil/97-11/1997.
[5] abbreviates: source organism: Lymphocytic choriomeningitis virus (strain Armstrong).
The mark [6] stands for this setting: source organism: Mammarenavirus juninense.
Where [7] appears, read: source organism: Dengue virus 2 Jamaica/1409/1983.
[8] abbreviates: source organism: Mammarenavirus guanaritoense.
Where [9] appears, read: source organism: SARS coronavirus Tor2.
Where [10] appears, read: source organism: Vaccinia virus WR.
Setting [11] is: source organism: Mammarenavirus lassaense.

For orientation: Kd means the equilibrium constant for the complex coming apart. For the sequence AEMEEALKG, the Kd is 0.0297 µM with HLA-B*44:02 (setting [3]) and 0.00534 µM in the assay with HLA-B*44:03 (setting [3]).

Take AEPDDVDCW: the equilibrium dissociation constant (Kd) with HLA-B*44:02 (setting [4]) is 0.0374 µM; with HLA-B*44:03 (setting [4]), 0.236 µM.

Regarding AFKVPGVKTV, the Kd in the assay with HLA-A*24:02 (setting [5]) was at least 70.3 µM; with HLA-A*30:02 (setting [5]), 6.59 µM; in the assay with HLA-A*29:02 (setting [5]), 6.96 µM; in the assay with HLA-A*23:01 (setting [5]), at least 70 µM; in the assay with HLA-A*01:01 (setting [5]) it was at least 70.4 µM; in the assay with HLA-A*26:01 [1] (setting [5]), at least 69.7 µM.

Consider AGEKALKLSW, for which the Kd in the assay with HLA-B*44:02 (setting [4]) amounted to 0.576 µM.

For the sequence AGSKYIHCF, the Kd is 5.37 µM with HLA-A*24:02 (setting [6]); 6.5 µM with HLA-A*30:02 (setting [6]); at least 78.9 µM with HLA-A*29:02 (setting [6]); at least 21.4 µM with HLA-A*23:01 (setting [6]); 0.808 µM with HLA-A*01:01 (setting [6]); at least 77.9 µM with HLA-A*26:01 [1] (setting [6]).

Turning to CIAIGIITLY, the Kd with HLA-A*30:02 (setting [3]) is at least 69.7 µM; with HLA-A*01:01 (setting [3]) it was 7.45 µM; in the assay with HLA-A*26:01 [1] (setting [3]) it was 0.121 µM.

DGLSSVGGY registered a Kd in the assay with HLA-A*26:01 [2] (source organism: Azotobacter vinelandii DJ) of at least 20 µM.

Regarding DTIETLMLLA, the Kd with HLA-A*26:01 [1] (setting [4]) stood at 0.228 µM.

Regarding DTITYKCPLL, the Kd in the assay with HLA-A*30:01 worked out at 1.14 µM; in the assay with HLA-A*26:01 [1] (setting [7]), 2.1 µM.

With EALKGLPIRY, the Kd in the assay with HLA-A*26:01 [1] (setting [3]) is 10.1 µM.

Consider EFFDCFKYIL, for which the Kd in the assay with HLA-A*24:02 (setting [8]) worked out at 8.7 µM; with HLA-A*29:02 (setting [8]) it was 0.645 µM; with HLA-A*23:01 (setting [8]), 1.69 µM.

For the sequence EIDETCEHEY, the Kd is at least 70.3 µM in the assay with HLA-A*24:02 (setting [9]); 1.06 µM with HLA-A*30:02 (setting [9]); 0.656 µM in the assay with HLA-A*29:02 (setting [9]); at least 70 µM in the assay with HLA-A*23:01 (setting [9]); 0.197 µM with HLA-A*01:01 (setting [9]); 0.492 µM in the assay with HLA-A*26:01 [1] (setting [9]).

With EKMETLQRKY, the Kd with HLA-A*26:01 [1] (setting [7]) was at least 20.1 µM.

With EKWKKKLNQL, in the assay with HLA-B*08:01 (setting [3]), the Kd turned out to be 0.596 µM.

Sequence ELSQSMFHY gave a dissociation constant Kd in the assay with HLA-A*26:01 [2] (source organism: Bacillus cereus G9241) of 0.25 µM.

Consider EPGSSFKFL, for which the Kd in the assay with HLA-B*08:01 (setting [10]) was 1.88 µM.

As for ETNYYIHPI, the Kd with HLA-A*32:01 (setting [10]) came out at 0.368 µM.

For FFLPIFSEF, the figures for the Kd in the assay with HLA-A*24:02 (setting [8]), with HLA-A*29:02 (setting [8]) and with HLA-A*23:01 (setting [8]) were 0.0324 µM, 0.000921 µM and 0.000198 µM, respectively.

FNATKFPSVY: the Kd with HLA-A*24:02 (setting [9]) is at least 70.3 µM; with HLA-A*30:02 (setting [9]) it was 1.21 µM; with HLA-A*29:02 (setting [9]) it was 3.04 µM; in the assay with HLA-A*23:01 (setting [9]) it was at least 70 µM; with HLA-A*01:01 (setting [9]), at least 56.3 µM; with HLA-A*26:01 [1] (setting [9]) it was at least 24.5 µM.

FPRYHSIEL: the Kd in the assay with HLA-B*08:01 (setting [10]) was 0.000492 µM.

In the case of FYGGWHNML, the Kd in the assay with HLA-A*24:02 (setting [9]) is at least 27.9 µM; in the assay with HLA-A*30:02 (setting [9]), at least 100 µM; with HLA-A*29:02 (setting [9]), 15.5 µM; with HLA-A*23:01 (setting [9]), 5.18 µM; in the assay with HLA-A*01:01 (setting [9]), at least 78.1 µM; with HLA-A*26:01 [1] (setting [9]), at least 77.9 µM.

On to GPITTLWEGS, for which the Kd in the assay with HLA-A*32:01 (setting [3]) worked out at 2.87 µM.

Consider GSVGFNIDY, for which the Kd is at least 77.6 µM with HLA-A*24:02 (setting [9]); 1.66 µM in the assay with HLA-A*30:02 (setting [9]); 0.177 µM in the assay with HLA-A*29:02 (setting [9]); at least 77.8 µM with HLA-A*23:01 (setting [9]); 5.64 µM in the assay with HLA-A*01:01 (setting [9]); 10.2 µM in the assay with HLA-A*26:01 [1] (setting [9]).

As for HAQRVESWIL, in the assay with HLA-B*08:01 (source organism: Dengue virus 4 Philippines/H241/1956), the Kd was found to be 0.355 µM.

As for HYLCLNCLS, the Kd in the assay with HLA-A*30:02 (setting [11]) was 14.2 µM; with HLA-A*01:01 (setting [11]) it was 3.73 µM; in the assay with HLA-A*26:01 [1] (setting [11]) it was at least 77.9 µM.

Regarding ISGLFPVSI, the Kd with HLA-A*32:01 (source organism: Dengue virus 2 Peru/IQT2913/1996) was 1.26 µM.
